Results as given in PMC5658042 (Methods (San Diego, Calif.), 2017).

Molecular target: Drosophila melanogaster Dicer-2 (dmDcr-2), OSF tag removed (Drosophila melanogaster, UniProt A1ZAW0 1-1722)
Test: cross-linking

Chain of Drosophila melanogaster Dicer-2 (dmDcr-2), OSF tag removed (A1ZAW0 whole entry): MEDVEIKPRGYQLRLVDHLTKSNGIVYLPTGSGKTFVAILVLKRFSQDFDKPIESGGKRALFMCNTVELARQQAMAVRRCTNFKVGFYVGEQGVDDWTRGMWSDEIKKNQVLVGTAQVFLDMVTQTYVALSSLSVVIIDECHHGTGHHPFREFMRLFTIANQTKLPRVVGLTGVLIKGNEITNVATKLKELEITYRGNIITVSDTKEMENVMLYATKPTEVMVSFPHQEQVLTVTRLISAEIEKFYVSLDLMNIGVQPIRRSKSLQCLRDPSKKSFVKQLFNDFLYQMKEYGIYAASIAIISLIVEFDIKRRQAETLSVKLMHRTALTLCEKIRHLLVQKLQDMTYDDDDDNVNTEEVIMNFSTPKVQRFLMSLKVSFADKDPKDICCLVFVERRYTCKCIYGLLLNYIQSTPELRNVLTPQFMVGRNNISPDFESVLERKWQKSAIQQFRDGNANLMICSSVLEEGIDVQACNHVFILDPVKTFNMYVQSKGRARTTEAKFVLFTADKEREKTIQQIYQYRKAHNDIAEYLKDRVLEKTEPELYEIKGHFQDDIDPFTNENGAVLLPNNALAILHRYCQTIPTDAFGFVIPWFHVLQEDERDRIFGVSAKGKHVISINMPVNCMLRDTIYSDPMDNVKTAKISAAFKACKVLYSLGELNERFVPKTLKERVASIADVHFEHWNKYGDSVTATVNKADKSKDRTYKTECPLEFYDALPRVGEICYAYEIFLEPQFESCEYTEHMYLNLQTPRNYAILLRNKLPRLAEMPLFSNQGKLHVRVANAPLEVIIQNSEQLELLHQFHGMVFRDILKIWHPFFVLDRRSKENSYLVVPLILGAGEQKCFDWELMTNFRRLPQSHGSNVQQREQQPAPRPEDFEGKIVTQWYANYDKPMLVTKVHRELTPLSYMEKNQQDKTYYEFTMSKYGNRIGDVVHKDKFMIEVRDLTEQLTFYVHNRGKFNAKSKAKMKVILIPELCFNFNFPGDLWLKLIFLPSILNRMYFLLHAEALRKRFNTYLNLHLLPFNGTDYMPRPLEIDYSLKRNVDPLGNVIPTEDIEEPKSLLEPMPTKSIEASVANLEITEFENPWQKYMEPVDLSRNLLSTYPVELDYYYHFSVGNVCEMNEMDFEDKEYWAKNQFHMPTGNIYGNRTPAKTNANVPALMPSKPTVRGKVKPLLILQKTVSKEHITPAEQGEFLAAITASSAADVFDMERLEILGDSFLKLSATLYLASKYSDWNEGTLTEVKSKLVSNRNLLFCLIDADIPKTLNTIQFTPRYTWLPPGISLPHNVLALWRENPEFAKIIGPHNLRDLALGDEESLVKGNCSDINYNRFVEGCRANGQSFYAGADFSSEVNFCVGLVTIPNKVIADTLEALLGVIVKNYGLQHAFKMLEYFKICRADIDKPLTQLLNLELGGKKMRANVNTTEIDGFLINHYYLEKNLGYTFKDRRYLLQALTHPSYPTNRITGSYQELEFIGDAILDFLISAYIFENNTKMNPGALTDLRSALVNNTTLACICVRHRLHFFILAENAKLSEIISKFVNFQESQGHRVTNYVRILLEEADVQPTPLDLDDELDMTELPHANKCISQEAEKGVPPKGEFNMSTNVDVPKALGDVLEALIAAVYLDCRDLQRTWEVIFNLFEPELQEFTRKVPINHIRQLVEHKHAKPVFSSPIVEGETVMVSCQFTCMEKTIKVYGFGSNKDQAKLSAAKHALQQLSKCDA

B1: Loquacious-PD (Loqs-PD), OSF tag removed (natural protein, Drosophila melanogaster, UniProt Q9VJY9-4 1-359, looked up)
chain: MDQENFHGSSLPQQLQNLHIQPQQASPNPVQTGFAPRRHYNNLVGLGNGNAVSGSPVKGAPLGQRHVKLKKEKISAQVAQLSQPGQLQLSDVGDPALAGGSGLQGGVGLMGVILPSDEALKFVSETDANGLAMKTPVSILQELLSRRGITPGYELVQIEGAIHEPTFRFRVSFKDKDTPFTAMGAGRSKKEAKHAAARALIDKLIGAQLPESPSSSAGPSVTGLTVAGSGGDGNANATGGGDASDKTVGNPIGWLQEMCMQRRWPPPSYETETEVGLPHERLFTIACSILNYREMGKGKSKKIAKRLAAHRMWMRLQETPIDSGKISDSICGELEGEVSIIQDIDRYEQVSKDFEFIKI
modifications: mono-phosphorylated (intact-mass ESI/MS shows a phospho and a dephosphorylated species); putative site assigned to the motif 213-SPSSS-217
- stoichiometry N: 1
